Measurements published in patent US6936706.

Biological target: bacterial fusion protein 11-2 (a hybrid of b-galactosidase and human mammary mucin) (human) (UniProt P15941)
Assay: competition RIA against 125I-labeled murine BrE-3 on 11-2 fusion protein; reciprocal of the competitor concentration giving 50% binding

B1: murine-human chimeric BrE-3 antibody (ATCC HB 11199, Chimeric BrE-3 A1C10) (antibody, V domains shown)
VH: EVKLEESGGGLVQPGGSMKLSCAASGFTFSDAWMDWVRQSPEKGLEWVAEIRNKANNHATYYDESVKGRFTISRDDSKSRVYLQMISLRAEDTGLYYCTGEFANWGQGTLVTVSA
VL: DVVMTQTPLSLPVSLGDQASISCRSSQNLVHNNGNTYLYWFLQKSGQSPKLLIYRASIRFSGVPDRFSGSGSETDFTLKISRVEAEDLGVYFCFQGTHVPWTFGGGTKLEIK
- Ka: 2.68e+08 M⁻¹

B2: murine BrE-3 monoclonal antibody (ATCC No. HB 10028) (antibody, V domains shown)
VH: EVKLEESGGGLVQPGGSMKLSCAASGFTFSDAWMDWVRQSPEKGLEWVAEIRNKANNHATYYDESVKGRFTISRDDSKSRVYLQMISLRAEDTGLYYCTGEFANWGQGTLVTVSA
VL: DVVMTQTPLSLPVSLGDQASISCRSSQNLVHNNGNTYLYWFLQKSGQSPKLLIYRASIRFSGVPDRFSGSGSETDFTLKISRVEAEDLGVYFCFQGTHVPWTFGGGTKLEIK
- Ka: 3.75e+08 M⁻¹
